According to EP2078531A2:
Several values for one entry are separate records, joined by “and”; a condition that tells them apart may be missing. Identical values can stand only once.

Target: T1, Human recombinant platelet factor-4 (human) (UniProt P02776)
T1 sequence (looked up): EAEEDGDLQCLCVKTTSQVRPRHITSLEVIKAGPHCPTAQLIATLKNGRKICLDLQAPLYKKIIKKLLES
Test: PF4-sepharose affinity column, HUVEC conditioned medium

- NaCl concentration at elution from the PF4 column: 0.4 M NaCl and 0.5 M NaCl
Substance: LOR-1 (from UniProt Q9Y4K0 26-774) (enzyme)
